# Source: the supplement of paper PMC10567573
# B1: POMT2 (parent)
# chain: YHEAPMTRKHYQVTGYGINGTGDS
# Variants of: B1
# Assay: protein stability index of a GFP-peptide fusion (GPS, HEK-293T) (PSI 1-6); higher = more stable
# Conditions: c terminus: a fixed tail appended
# 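Further: lentivirally expressed fusions sorted by FACS into six bins by GFP to DsRed ratio, PSI derived from sequencing read proportions per bin multiplied by bin number.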
row,Variant,protein stability index
1,YHEAPMTRKHYQVTGYGINFTGDS [G20F],2.35
2,YHEAPMTRKHYQVTGYGINLTGDS [G20L],2.21
3,YHEAPMTRKHYQVTGYGINMTGDS [G20M],1.98
4,YHEAPMTRKHYQVTGYGINWTGDS [G20W],2.12
5,YHEAPMTRKHYQVTGYGINCTGDS [G20C],1.86
6,YHEAPMTRKHYQVTGYGINTTGDS [G20T],2.43
7,YHEAPMTRKHYQVTGYGINHTGDS [G20H],2.26
8,YHEAPMTRKHYQVTGYGINRTGDS [G20R],2.16
9,YHEAPMTRKHYQVTGYGINETGDS [G20E],2.4
10,YHEAPMTRKHYQVTGYGINPTGDS [G20P],2.24
11,YHEAPMTRKHYQVTGYGINKTGDS [G20K],2.08
12,YHEAPMTRKHYQVTGYGINQTGDS [G20Q],2.43
13,YHEAPMTRKHYQVTGYGINNTGDS [G20N],2.47
14,YHEAPMTRKHYQVTGYGINVTGDS [G20V],1.98
15,YHEAPMTRKHYQVTGYGINSTGDS [G20S],2.36
16,YHEAPMTRKHYQVTGYGINDTGDS [G20D],2.18
17,YHEAPMTRKHYQVTGYGINYTGDS [G20Y],2.39
18,YHEAPMTRKHYQVTGYGINITGDS [G20I],2.03
19,YHEAPMTRKHYQVTGYGINATGDS [G20A],2.45
20,YHEAPMTRKHYQVTGFGINGTGDS [Y16F],1.75
21,YHEAPMTRKHYQVTGGGINGTGDS [Y16G],2.9
22,YHEAPMTRKHYQVTGRGINGTGDS [Y16R],3.36
23,YHEAPMTRKHYQVTGEGINGTGDS [Y16E],3.3
24,YHEAPMTRKHYQVTGSGINGTGDS [Y16S],2.67

row,Variant,protein stability index
1,YHEAPMTRKHYQVTGNGINGTGDS [Y16N],2.43
2,YHEAPMTRKHYQVTGCGINGTGDS [Y16C],2.51
3,YHEAPMTRKHYQVTGWGINGTGDS [Y16W],1.75
4,YHEAPMTRKHYQVTGDGINGTGDS [Y16D],3.66
5,YHEAPMTRKHYQVTGVGINGTGDS [Y16V],2.47
6,YHEAPMTRKHYQVTGMGINGTGDS [Y16M],2.3
7,YHEAPMTRKHYQVTGQGINGTGDS [Y16Q],2.26
8,YHEAPMTRKHYQVTGPGINGTGDS [Y16P],2.92
9,YHEAPMTRKHYQVTGLGINGTGDS [Y16L],1.97
10,YHEAPMTRKHYQVTGIGINGTGDS [Y16I],2.47
11,YHEAPMTRKHYQVTGKGINGTGDS [Y16K],3.2
12,YHEAPMTRKHYQVTGHGINGTGDS [Y16H],2.79
13,YHEAPMTRKHYQVTGTGINGTGDS [Y16T],2.53
14,YHEAPMTRKHYQVTGAGINGTGDS [Y16A],2.48
15,YHEAPMTRKHYQVTGYYINGTGDS [G17Y],2.26
16,YHEAPMTRKHYQVTGYFINGTGDS [G17F],1.79
17,YHEAPMTRKHYQVTGYHINGTGDS [G17H],2.06
18,YHEAPMTRKHYQVTGYRINGTGDS [G17R],2.37
19,YHEAPMTRKHYQVTGYTINGTGDS [G17T],2.24
20,YHEAPMTRKHYQVTGYQINGTGDS [G17Q],1.75
21,YHEAPMTRKHYQVTGYKINGTGDS [G17K],2.13
22,YHEAPMTRKHYQVTGYIINGTGDS [G17I],1.84
23,YHEAPMTRKHYQVTGYAINGTGDS [G17A],1.9
24,YHEAPMTRKHYQVTGYNINGTGDS [G17N],2.03

row,Variant,protein stability index
1,YHEAPMTRKHYQVTGYPINGTGDS [G17P],2.87
2,YHEAPMTRKHYQVTGYSINGTGDS [G17S],1.62
3,YHEAPMTRKHYQVTGYWINGTGDS [G17W],2.6
4,YHEAPMTRKHYQVTGYVINGTGDS [G17V],2.08
5,YHEAPMTRKHYQVTGYDINGTGDS [G17D],2.51
6,YHEAPMTRKHYQVTGYCINGTGDS [G17C],2.41
7,YHEAPMTRKHYQVTGYMINGTGDS [G17M],1.84
8,YHEAPMTRKHYQVTGYLINGTGDS [G17L],2.5
9,YHEAPMTRKHYQVTGYEINGTGDS [G17E],2.73
10,YHEAPMTRKHYQVTGYGINGQGDS [T21Q],2.12
11,YHEAPMTRKHYQVTGYGINGGGDS [T21G],1.83
12,YHEAPMTRKHYQVTGYGINGPGDS [T21P],2.25
13,YHEAPMTRKHYQVTGYGINGHGDS [T21H],2.23
14,YHEAPMTRKHYQVTGYGINGMGDS [T21M],2.01
15,YHEAPMTRKHYQVTGYGINGFGDS [T21F],2.11
16,YHEAPMTRKHYQVTGYGINGKGDS [T21K],2.3
17,YHEAPMTRKHYQVTGYGINGAGDS [T21A],2.56
18,YHEAPMTRKHYQVTGYGINGCGDS [T21C],2.4
19,YHEAPMTRKHYQVTGYGINGIGDS [T21I],1.37
20,YHEAPMTRKHYQVTGYGINGNGDS [T21N],2.58
21,YHEAPMTRKHYQVTGYGINGDGDS [T21D],2.46
22,YHEAPMTRKHYQVTGYGINGWGDS [T21W],2.15
23,YHEAPMTRKHYQVTGYGINGLGDS [T21L],2.1
24,YHEAPMTRKHYQVTGYGINGEGDS [T21E],2.04

row,Variant,protein stability index
1,YHEAPMTRKHYQVTGYGINGYGDS [T21Y],1.76
2,YHEAPMTRKHYQVTGYGINGRGDS [T21R],2.6
3,YHEAPMTRKHYQVTGYGINGSGDS [T21S],2.19
4,YHEAPMTRKHYQVTGYGINGVGDS [T21V],1.37
5,YHEAPMTRKHYQVTGYGINGTGDR [S24R],2.17
6,YHEAPMTRKHYQVTGYGINGTGDI [S24I],2.16
7,YHEAPMTRKHYQVTGYGINGTGDM [S24M],1.79
8,YHEAPMTRKHYQVTGYGINGTGDV [S24V],2.44
9,YHEAPMTRKHYQVTGYGINGTGDP [S24P],2.23
10,YHEAPMTRKHYQVTGYGINGTGDW [S24W],1.49
11,YHEAPMTRKHYQVTGYGINGTGDN [S24N],2.11
12,YHEAPMTRKHYQVTGYGINGTGDG [S24G],2.57
13,YHEAPMTRKHYQVTGYGINGTGDH [S24H],1.99
14,YHEAPMTRKHYQVTGYGINGTGDK [S24K],2.57
15,YHEAPMTRKHYQVTGYGINGTGDQ [S24Q],1.68
16,YHEAPMTRKHYQVTGYGINGTGDT [S24T],1.98
17,YHEAPMTRKHYQVTGYGINGTGDF [S24F],1.76
18,YHEAPMTRKHYQVTGYGINGTGDC [S24C],1.81
19,YHEAPMTRKHYQVTGYGINGTGDD [S24D],2.41
20,YHEAPMTRKHYQVTGYGINGTGDE [S24E],2.29
21,YHEAPMTRKHYQVTGYGINGTGDL [S24L],1.64
22,YHEAPMTRKHYQVTGYGINGTGDY [S24Y],2.1
